# Columns and labels:
# factor XII = biological target: T1, factor XII (Homo sapiens, UniProt P00748); assay: ELISA, binding of β2GPI to immobilized factor XII
# T1 construct: purified human factor XII from plasma (Calbiochem); purchased Calbiochem; host or cells: human plasma
# T1 sequence (P00748 20-615): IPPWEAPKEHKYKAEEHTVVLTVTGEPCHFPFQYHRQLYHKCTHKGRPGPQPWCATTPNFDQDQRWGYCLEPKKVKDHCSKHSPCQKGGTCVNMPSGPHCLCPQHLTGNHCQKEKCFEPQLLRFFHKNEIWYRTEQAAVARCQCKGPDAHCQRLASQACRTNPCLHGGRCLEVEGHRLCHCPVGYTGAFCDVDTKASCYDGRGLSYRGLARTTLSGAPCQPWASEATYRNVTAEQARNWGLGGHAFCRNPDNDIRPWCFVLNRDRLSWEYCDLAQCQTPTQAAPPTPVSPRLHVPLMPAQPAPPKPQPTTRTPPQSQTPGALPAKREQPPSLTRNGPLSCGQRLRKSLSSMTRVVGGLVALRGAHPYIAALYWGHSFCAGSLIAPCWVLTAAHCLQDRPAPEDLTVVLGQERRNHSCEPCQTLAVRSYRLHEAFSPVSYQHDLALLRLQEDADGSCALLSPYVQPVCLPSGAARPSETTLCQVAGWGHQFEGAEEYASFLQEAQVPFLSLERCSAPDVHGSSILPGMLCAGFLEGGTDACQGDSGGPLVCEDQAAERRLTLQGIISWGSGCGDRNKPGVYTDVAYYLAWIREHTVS
# Experimental: (§1) Binding of purified human factor XII from plasma (Calbiochem) or of purified recombinant human tPA to β2GPI purified from human plasma, or to recombinant human β2GPI was tested in an ELISA. Ten μg of factor XII or tPA in PBS was coated onto wells of a Costar 2595 ELISA plate (Cambridge, USA) and incubated with concentration series of the two β2GPI preparations. Binding of β2GPI was assessed with monoclonal antibody 2B2^22.
# tPA = tPA (Homo sapiens, UniProt P00750); assay: ELISA, binding of β2GPI to immobilized tPA
# Chain of tPA (P00750 36-562): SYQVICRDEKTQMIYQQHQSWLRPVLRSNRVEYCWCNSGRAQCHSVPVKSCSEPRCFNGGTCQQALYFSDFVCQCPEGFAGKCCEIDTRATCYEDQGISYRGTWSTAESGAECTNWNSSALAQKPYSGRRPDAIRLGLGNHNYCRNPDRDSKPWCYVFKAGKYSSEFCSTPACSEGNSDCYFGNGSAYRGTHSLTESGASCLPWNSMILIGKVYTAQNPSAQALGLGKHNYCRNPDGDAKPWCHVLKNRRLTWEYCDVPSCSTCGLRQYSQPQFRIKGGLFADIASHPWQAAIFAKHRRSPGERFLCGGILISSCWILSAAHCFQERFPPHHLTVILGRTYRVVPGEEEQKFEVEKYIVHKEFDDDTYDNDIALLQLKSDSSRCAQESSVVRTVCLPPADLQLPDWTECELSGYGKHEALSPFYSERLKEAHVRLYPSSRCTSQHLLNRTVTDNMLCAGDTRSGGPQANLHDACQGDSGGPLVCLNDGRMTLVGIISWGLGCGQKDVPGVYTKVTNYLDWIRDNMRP
# Experimental: as §1
# Fn F4-5 = biological target: T2, Fn F4-5 (Homo sapiens, UniProt P02751); assay: Biacore surface plasmon resonance, binding to immobilized Fn F4-5
# T2 construct: amino-acids NH2—I182-V276-COOH of Fn F4-5; made in house; host or cells: Saccharomyces cerevisiae
# T2 sequence (P02751 182-276): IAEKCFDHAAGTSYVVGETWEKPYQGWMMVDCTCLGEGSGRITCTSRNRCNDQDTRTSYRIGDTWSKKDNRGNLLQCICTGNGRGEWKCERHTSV
# Experimental: Binding of cross-β structure containing peptides/proteins was studied using surface plasmon resonance technology with a Biacore 2000 apparatus (Biacore AB, Uppsala, Sweden). A standardized amine coupling procedure was used to couple proteins with F domains to a CM5 chip (Biacore AB, Uppsala, Sweden). First, the dextran surface of the chips was activated by a 35 μl injection with a 1:1 mixture of 0.1 M N-hydroxysuccinimide (NHS) and 0.4 M N-ethyl-N′-(dimethylaminopropyl)carbodiimide (EDC) at a flow rate of 5 μl min.^−1. Then, the proteins were covalently coupled to the activated dextran surface. Remaining activated groups in each of the four flow channels were blocked by injection of 35 μl of 1 M ethanolamine hydrochloride pH 8.5. EDC, NHS and ethanolamine hydrochloride were obtained from Biacore. On one chip, on channels 1 to 4, buffer (reference channel), the soluble extracellular part of receptor for advanced glycation endproducts (sRAGE), tPA and K2P-tPA were immobilized. […] Binding of albumin-AGE was determined with a solution of 3.9 μg ml^−1 albumin-AGE in running buffer. albumin-AGE was filtered on a Millex-GV 0.22 μm filter unit (Millipore). […] Binding of Hb-AGE was also tested after centrifugation for 10 min. at 16,000*g alternative to filtration. tPA activation before and after filtration was assessed with a Plg-activation assay. […]
molecule,measurement,setting,value
recombinant β2GPI: recombinant human β2-glycoprotein I made using insect cells (protein) GRTCPKPDDLPFSTVVPLKTFYEPGEEITYSCKPGYVSRGGMRKFICPLTGLWPINTLKCTPRVCPFAGILENGAVRYTTFEYPNTISFSCNTGFYLNGADSAKCTEEGKWSPELPVCAPIICPPPSIPTFATLRVYKPSAGNNSLYRDTAVFECLPQHAMFGNDTITCTTHGNWTKLPECREVKCPFPSRPDNGFVNYPAKPTLYYKDKATFGCHDGYSLDGPEEIECTKLGNWSAMPSCKASCKVPVKKATVVYQGERVKIQEKFKNGMLHGDKVSFFCKNKEKKCSYTEDAQCIDGTIEVPKCFKEHSSLAFWKTDASDVKPC,binding to factor XII,factor XII,bind
same,binding to tPA,tPA,bind
same,binding to the Fn F4-5 doublet,"Fn F4-5; Biacore, native Hb at 25 nM",bound
same,Kd,"Fn F4-5; immobilized Fn F4-5, Biacore CM5 chip, read-out: concentration of ligand that results in half maximum binding to Fn F4-5",165 nM
